Each block holds one binder with its values, some of them ahead of it. Starred links: 1 amine or outer side, 2 acyl side, 3 side chain; linkers in the order of their positions; H or OH if unused. Non-standard residues stand in square brackets, D forms with d. Primed or numbered codes have the meaning given here. *: point of attachment. Oic = O=C(O)[C@@H]1C[C@@H]2CCCC[C@@H]2N1; Phe(4-Cl) = N[C@@H](Cc1ccc(Cl)cc1)C(=O)O; γGlu = O=C(O)[C@H](CCC(=O)[*:2])N[*:1]; NMeR = CN[C@@H](CCCNC(=N)N)C(=O)O; Tridecanoyl = CCCCCCCCCCCCC(=O)*; hArg = N=C(N)NCCCC[C@H](N)C(=O)O; αMeL = CC(C)C[C@](C)(N)C(=O)O; αMeP = C[C@@]1(C(=O)O)CCCN1; β3hP = O=C(O)C[C@@H]1CCCN1; Nle = CCCC[C@H](N)C(=O)O; Pip′ = not defined here; AEEA = NCCOCCOCC(=O)O; Aib = CC(C)(N)C(=O)O; BLeu = β-leucine
What was measured:
rat APJ receptor = target: T1, rat APJ receptor (rat, UniProt Q9JHG3 1-377); experiment: cell-based or functional assay
T1 sequence (looked up): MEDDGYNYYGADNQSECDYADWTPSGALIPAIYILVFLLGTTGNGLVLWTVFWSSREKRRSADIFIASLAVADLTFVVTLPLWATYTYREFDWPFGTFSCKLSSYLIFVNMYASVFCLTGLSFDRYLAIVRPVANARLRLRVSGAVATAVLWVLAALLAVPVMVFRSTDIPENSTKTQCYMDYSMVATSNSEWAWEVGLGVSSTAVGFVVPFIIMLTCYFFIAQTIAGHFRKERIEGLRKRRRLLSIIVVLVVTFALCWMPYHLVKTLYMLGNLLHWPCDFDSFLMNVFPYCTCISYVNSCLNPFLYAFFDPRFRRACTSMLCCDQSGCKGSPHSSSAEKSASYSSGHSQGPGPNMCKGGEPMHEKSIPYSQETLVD

human APJ receptor = target: T2, human APJ receptor (human, UniProt P35414 1-380); experiment: cell-based or functional assay
T2 sequence (looked up): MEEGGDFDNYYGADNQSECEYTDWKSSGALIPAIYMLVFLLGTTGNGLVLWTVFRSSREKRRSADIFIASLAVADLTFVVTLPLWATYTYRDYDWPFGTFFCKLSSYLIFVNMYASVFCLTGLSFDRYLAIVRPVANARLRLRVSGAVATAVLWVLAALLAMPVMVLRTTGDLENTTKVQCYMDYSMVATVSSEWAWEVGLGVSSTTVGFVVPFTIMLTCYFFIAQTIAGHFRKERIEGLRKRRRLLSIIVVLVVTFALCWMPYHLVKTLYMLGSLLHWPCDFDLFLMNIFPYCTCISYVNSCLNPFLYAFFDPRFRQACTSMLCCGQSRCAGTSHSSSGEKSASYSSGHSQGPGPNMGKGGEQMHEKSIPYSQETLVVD

EC50 Rat APJ Receptor (GTPγS assay) (rat APJ receptor): 69.1 nM | EC50 Human APJ Receptor (GTPγS assay) (human APJ receptor): 18 nM
Binder: Tridecanoyl-[γGlu][AEEA][AEEA][dQ]R[αMeP][hArg][BLeu]SHKG[Oic][Nle][β3hP][Phe(4-Cl)]-OH [Apelin polypeptide SEQ ID NO: 556]

EC50 Rat APJ Receptor (GTPγS assay) (rat APJ receptor): 0.411 nM | EC50 Human APJ Receptor (GTPγS assay) (human APJ receptor): 0.26 nM
Binder: Tridecanoyl-[γGlu][AEEA][AEEA][dQ]RP[hArg][BLeu]SHKG[Oic][Nle]P[Phe(4-Cl)]-OH [Apelin polypeptide SEQ ID NO: 378]

EC50 Rat APJ Receptor (GTPγS assay) (rat APJ receptor): 4.81 nM | EC50 Human APJ Receptor (GTPγS assay) (human APJ receptor): 0.456 nM
Binder: Tridecanoyl-[γGlu][AEEA][AEEA][dQ]R[αMeP][hArg][BLeu]SHKG[Oic][Nle][αMeP][Phe(4-Cl)]-OH [Apelin polypeptide SEQ ID NO: 502]

EC50 Rat APJ Receptor (GTPγS assay) (rat APJ receptor): 71.9 nM | EC50 Human APJ Receptor (GTPγS assay) (human APJ receptor): 25.6 nM
Binder: Tridecanoyl-[γGlu][AEEA][AEEA][dQ]R[αMeP][Nle][BLeu]SHKG[Oic][Nle][αMeP][Phe(4-Cl)]-OH [Apelin polypeptide SEQ ID NO: 523]

EC50 Rat APJ Receptor (GTPγS assay) (rat APJ receptor): 23.1 nM | EC50 Human APJ Receptor (GTPγS assay) (human APJ receptor): 1.39 nM
B1: Apelin polypeptide SEQ ID NO: 504 (peptide)
peptide: XXXQRPRLSHKGPXPF
modifications: {TDA}[AC4Abu][Aeea][Aeea]qR[aMePro][hArg][BLeu]SHKG[aMePro][Nle][aMePro][4-Cl-F]{COOH}

EC50 Rat APJ Receptor (GTPγS assay) (rat APJ receptor): 2.01 nM | EC50 Human APJ Receptor (GTPγS assay) (human APJ receptor): 2.23 nM
B2: Apelin polypeptide SEQ ID NO: 553 (peptide)
peptide: Tridecanoyl-[γGlu][AEEA][AEEA][dQ]R[β3hP][NMeR][αMeL]SHKG[Oic][Nle][αMeP][Phe(4-Cl)]-OH
SMILES: CCCCCCCCCCCCC(=O)N[C@@H](CCC(=O)NCCOCCOCC(=O)NCCOCCOCC(=O)N[C@H](CCC(N)=O)C(=O)N[C@@H](CCCNC(=N)N)C(=O)N1CCC[C@H]1CC(=O)N(C)[C@@H](CCCNC(=N)N)C(=O)N[C@@](C)(CC(C)C)C(=O)N[C@@H](CO)C(=O)N[C@@H](Cc1c[nH]cn1)C(=O)N[C@@H](CCCCN)C(=O)NCC(=O)N1[C@H](C(=O)N[C@@H](CCCC)C(=O)N2CCC[C@@]2(C)C(=O)N[C@@H](Cc2ccc(Cl)cc2)C(=O)O)C[C@@H]2CCCC[C@@H]21)C(=O)O

EC50 Rat APJ Receptor (GTPγS assay) (rat APJ receptor): 3.21 nM | EC50 Human APJ Receptor (GTPγS assay) (human APJ receptor): 1.03 nM
Binder: Tridecanoyl-[γGlu][AEEA][AEEA][dQ]R[Pip′][hArg][BLeu]SHKG[Oic][Nle][Aib][Phe(4-Cl)]-OH [Apelin polypeptide SEQ ID NO: 521]

EC50 Rat APJ Receptor (GTPγS assay) (rat APJ receptor): 0.873 nM | EC50 Human APJ Receptor (GTPγS assay) (human APJ receptor): 0.346 nM
B3: Apelin polypeptide SEQ ID NO: 476 (peptide)
peptide: Tridecanoyl-[γGlu][AEEA][AEEA]QRE[NMeR]LSHKGP[Nle]P[Phe(4-Cl)]-OH
SMILES: CCCCCCCCCCCCC(=O)N[C@@H](CCC(=O)NCCOCCOCC(=O)NCCOCCOCC(=O)N[C@@H](CCC(N)=O)C(=O)N[C@@H](CCCNC(=N)N)C(=O)N[C@@H](CCC(=O)O)C(=O)N(C)[C@@H](CCCNC(=N)N)C(=O)N[C@@H](CC(C)C)C(=O)N[C@@H](CO)C(=O)N[C@@H](Cc1c[nH]cn1)C(=O)N[C@@H](CCCCN)C(=O)NCC(=O)N1CCC[C@H]1C(=O)N[C@@H](CCCC)C(=O)N1CCC[C@H]1C(=O)N[C@@H](Cc1ccc(Cl)cc1)C(=O)O)C(=O)O

EC50 Rat APJ Receptor (GTPγS assay) (rat APJ receptor): 44.7 nM | EC50 Human APJ Receptor (GTPγS assay) (human APJ receptor): 9.74 nM
Binder: Tridecanoyl-[γGlu][AEEA][AEEA][dQ]R[αMeP][hArg][BLeu]SHKG[Oic][Nle][Phe(4-Cl)]-OH [Apelin polypeptide SEQ ID NO: 519]

EC50 Rat APJ Receptor (GTPγS assay) (rat APJ receptor): 0.0827 nM | EC50 Human APJ Receptor (GTPγS assay) (human APJ receptor): 0.0519 nM
B4: Apelin polypeptide SEQ ID NO: 360 (peptide)
peptide: Tridecanoyl-[γGlu][AEEA][AEEA]QRP[hArg][αMeL]SHKG[Oic][Nle]P[Phe(4-Cl)]-OH
SMILES: CCCCCCCCCCCCC(=O)N[C@@H](CCC(=O)NCCOCCOCC(=O)NCCOCCOCC(=O)N[C@@H](CCC(N)=O)C(=O)N[C@@H](CCCNC(=N)N)C(=O)N1CCC[C@H]1C(=O)N[C@@H](CCCCNC(=N)N)C(=O)N[C@@](C)(CC(C)C)C(=O)N[C@@H](CO)C(=O)N[C@@H](Cc1c[nH]cn1)C(=O)N[C@@H](CCCCN)C(=O)NCC(=O)N1[C@H](C(=O)N[C@@H](CCCC)C(=O)N2CCC[C@H]2C(=O)N[C@@H](Cc2ccc(Cl)cc2)C(=O)O)C[C@@H]2CCCC[C@@H]21)C(=O)O
